Results taken from publication PMC3326337.

Tested on: Streptavidin
Experiment: DRaCALA
Details: 5'-biotin on one strand

3x ICAP PCR probe with biotin
Kd: 0.4 nM
